Measurements as given in patent publication US20200024330A1.

Assays:
Test in all cases: cell-based or functional assay
[1] = target: HIV-1 MGRM-D-018 envelope glycoprotein (Env) on pseudovirus (HIV-1)
[2] = target: HIV-1 92UG005 envelope glycoprotein (Env) on pseudovirus (HIV-1)
[3] = target: HIV-1 CMU02 envelope glycoprotein (Env) on pseudovirus (HIV-1)
[4] = target: aMLV envelope protein on pseudovirus (negative control virus)
[5] = target: HIV-1 92UG024 envelope glycoprotein (Env) on pseudovirus (HIV-1)
[6] = target: HIV-1 92TH021 envelope glycoprotein (Env) on pseudovirus (HIV-1)
[7] = target: HIV-1 MGRM-AG-005 envelope glycoprotein (Env) on pseudovirus (HIV-1)
[8] = target: HIV-1 MGRM-D-001 envelope glycoprotein (Env) on pseudovirus (HIV-1)

B1: PGT-125 monoclonal antibody (antibody, V domains shown)
VH: QSQLQESGPRLVEASETLSLTCNVSGESTGACTYFWGWVRQAPGKGLEWIGSLSHCQSFWGSGWTFHNPSLKSRLTISLDTPKNQVFLKLTSLTAADTATYYCARFDGEVLVYNHWPKPAWVDLWGRGIPVTVSS
VL: QSALTQPPSASGSPGQSITISCNGTATNFVSWYQQFPDKAPKLIIFGVDKRPPGVPDRFSGSRSGTTASLTVSRLQTDDEAVYYCGSLVGNWDVIFGGGTTLTVL
IC50, pseudovirus neutralization [1]: 0.0382 mg/L | IC50, pseudovirus neutralization [2]: > 10 mg/L | IC50, pseudovirus neutralization [3]: > 10 mg/L | IC50, pseudovirus neutralization [4]: > 10 mg/L | IC50, pseudovirus neutralization [5]: > 10 mg/L | IC50, pseudovirus neutralization [6]: 0.0066 mg/L | IC50, pseudovirus neutralization [7]: > 10 mg/L | IC50, pseudovirus neutralization [8]: 2.31 mg/L

B2: PGT-136 monoclonal antibody (antibody, V domains shown)
VH: QLQLQESGPGLVKPSETLSLTCTVSGGSMRGTDWGENDFHYGWIRQSSAKGLEWIGSIHWRGRTTHYKTSFRSRATLSIDTSNNRFSLTFSFVTAADTAVYYCARHKYHDIFRVVPVAGWFDPWGQGLLVTVSS
VL: EIVMTQSPPTLSVSPGETATLSCRASQNVKNNLAWYQLKPGQAPRLLIFDASSRAGGIPDRFSGSGYGTDFTLTVNSVQSEDFGDYFCQQYEEWPRTFGQGTKVDIK
IC50, pseudovirus neutralization [1]: > 10 mg/L | IC50, pseudovirus neutralization [2]: > 10 mg/L | IC50, pseudovirus neutralization [3]: > 10 mg/L | IC50, pseudovirus neutralization [4]: > 10 mg/L | IC50, pseudovirus neutralization [5]: 0.0915 mg/L | IC50, pseudovirus neutralization [6]: > 10 mg/L | IC50, pseudovirus neutralization [7]: > 10 mg/L | IC50, pseudovirus neutralization [8]: > 10 mg/L

B3: PGT-126 monoclonal antibody (antibody, V domains shown)
VH: QPQLQESGPGLVEASETLSLTCTVSGDSTAACDYFWGWVRQPPGKGLEWIGGLSHCAGYYNTGWTYHNPSLKSRLTISLDTPKNQVFLKLNSVTAADTAIYYCARFDGEVLVYHDWPKPAWVDLWGRGTLVTVSS
VL: QSALTQPPSASGSPGQSISISCTGTSNRFVSWYQQHPGKAPKLVIYGVNKRPSGVPDRFSGSKSGNTASLTVSGLQTDDEAVYYCSSLVGNWDVIFGGGTKLTVL
IC50, pseudovirus neutralization [1]: 0.0093 mg/L | IC50, pseudovirus neutralization [2]: 0.0181 mg/L | IC50, pseudovirus neutralization [3]: > 10 mg/L | IC50, pseudovirus neutralization [4]: > 10 mg/L | IC50, pseudovirus neutralization [5]: > 10 mg/L | IC50, pseudovirus neutralization [6]: 0.115 mg/L | IC50, pseudovirus neutralization [7]: 1.35 mg/L | IC50, pseudovirus neutralization [8]: 0.0639 mg/L

B4: PGT-130 monoclonal antibody (antibody, V domains shown)
VH: QVQLQESGPGLVKPAETLSLTCSVSGESINTGHYYWGWVRQVPGKGLEWIGHIHYTTAVLHNPSLKSRLTIKIYTLRNQITLRLSNVTAADTAVYHCVRSGGDILYYYEWQKPHWFSPWGPGIHVTVSS
VL: QSALTQPPSASGSLGQSVTISCNGTSSDIGGWNFVSWYQQFPGRAPRLIIFEVNKRPSGVPGRFSGSKSGNSASLTVSGLQSDDEGQYFCSSLFGRWDVVFGGGTKLTVL
IC50, pseudovirus neutralization [1]: 0.0378 mg/L | IC50, pseudovirus neutralization [2]: 0.474 mg/L | IC50, pseudovirus neutralization [3]: > 10 mg/L | IC50, pseudovirus neutralization [4]: > 10 mg/L | IC50, pseudovirus neutralization [5]: > 10 mg/L | IC50, pseudovirus neutralization [6]: 0.0082 mg/L | IC50, pseudovirus neutralization [7]: 0.947 mg/L | IC50, pseudovirus neutralization [8]: > 10 mg/L
